No end group written: not given here. *: point of attachment. Biotin = O=C1N[C@H]2[C@H](CS[C@H]2CCCCC(=O)*)N1; code X = not defined here; linker = not defined here

Experiment [1] concerns the target T1, cynomolgus CD3-epsilon (cynomolgus, UniProt Q95LI5 22-198).
T1 construct: whole, on cells; also called CD3ε on cynomolgus T cells / PBMCs
Nature of the experiment: flow cytometry on cynomolgus T cells. How it is done:
In these experiments, human or cynomolgus T cells were incubated with an anti-CD3ε antibody and binding was assessed by flow cytometry.
Briefly, donor T cells from either human or cynomolgus donors were resuspended in FACS buffer containing 0.1% sodium azide and aliquoted in 100 μL volumes. For incubation, 100 μL aliquots of donor T cells were mixed with 50 μL of antibodies diluted in FACS buffer containing 0.1% sodium azide. The cells were then washed twice with FACS buffer containing sodium azide. The bound antibody was detected by incubating cells for 60 minutes with a 1:200 dilution of SAV-RPE (Invitrogen Cat No. SA10044, Lot. 1542820A) or 1:100 dilution of goat-anti-Mouse Fcγ-RPE (Jackson Cat. No. 115-116-071, Lot. 108668, diluted in 0.2% goat serum). The cells were washed, fixed, and analyzed with an Accuri Flow Cytometer.
Treatment with OKT3, SP34-2, and diL2K antibodies were used as positive controls for T cell binding. […] Treatment with OKT3, SP34-2, and diL2K antibodies were used as controls for T cell binding with only SP34-2 binding to cynomolgus T cells, as expected.

Experiment [2] addresses T2, (H2N-KEFSELEQSGYYVCYPRGSNPEDA-OH) vCD3e #p3-BSA (conjugated to BSA).
T2 construct: also called control peptide #p3
T2 peptide: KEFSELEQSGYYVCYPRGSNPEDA
The experiment in a line: Luminex bead assay, 1 ug/ml antibody [Cont.]. How it is done:
(§1) A set of experiments was performed to map the epitope recognized by the anti-CD3ε antibodies. In these experiments, the anti-CD3ε antibodies were assessed for binding to a collection of overlapping 15-mer peptides spanning amino acids 1-27 of human CD3ε protein using a Luminex bead assay. Control CD3 proteins, control peptides, or the test peptides were immobilized on Luminex beads and incubated with a panel of anti-CD3 antibodies. Binding of the anti-CD3 antibodies to the peptide/protein immobilized on the Luminex bead was detected by R-Phycoerythrin conjugated secondary antibody.
(§2) Recombinant CD3 proteins (human CD3d/e heterodimer and cynomolgus CD3-epsilon (Sinobiological)) and control peptides (#p1, #p2, and #p3) were conjugated to Luminex beads using standard EDC/Sulfo-NHS chemistry. The 15-mer test peptides were synthesized as biotinylated peptides at JPT Peptide Technologies Gmbh and were immobilized on streptavidin-conjugated Luminex beads that were made using standard EDC/Sulfo-NHS chemistry and streptavidin (Invitrogen Cat. No. 434301 lot 1626028A). The Luminex beads with immobilized peptides or reagents were incubated with 50 ul of a panel of anti-CD3 antibodies (1 ug/ml) for one hour at room temperature, washed two times, incubated with mixture of anti-human and anti-mouse IgG-RPE (Jackson Immunoresearch 109-116-097 and Southern Biotech 1030-09, respectively) for 30 mins at RT, washed three times, and analyzed in the Luminex instrument to assess the level of bound anti-CD3 antibodies.

Experiment [3] has as its target T3, B X DGNEEMGGITQTPYK (reading uncertain).
T3 construct: row 3 of the chart; also called biotinylated 15-mer, residues 2-16
T3 peptide: {Biotin-code X}-DGNEEMGGITQTPYK
Nature of the experiment: Luminex bead assay, 1 ug/ml antibody [Cont.]. How it is done:
as §1, §2

Experiment [4] deals with T4, B X GNEEMGGITQTPYKV (reading uncertain).
T4 construct: row 4 of the chart; also called biotinylated 15-mer, residues 3-17
T4 peptide: {Biotin-code X}-GNEEMGGITQTPYKV
The experiment in a line: Luminex bead assay, 1 ug/ml antibody [Cont.]. How it is done: as §1, §2

Experiment [5] addresses T5, B X NEEMGGITQTPYKVS (reading uncertain).
T5 construct: row 5 of the chart; also called biotinylated 15-mer, residues 4-18
T5 peptide: {Biotin-code X}-NEEMGGITQTPYKVS
Nature of the experiment: Luminex bead assay, 1 ug/ml antibody [Cont.]. How it is done:
as §1, §2

Experiment [6] concerns the target T6, B X EMGGITQTPYKVSIS (reading uncertain).
T6 construct: row 7 of the chart; also called biotinylated 15-mer, residues 6-20
T6 peptide: {Biotin-code X}-EMGGITQTPYKVSIS
The experiment in a line: Luminex bead assay, 1 ug/ml antibody [Cont.]. How it is done: as §1, §2

For experiment [7], the target named is T7, B X ITQTPYKVSISGTTV (reading uncertain).
T7 construct: row 11 of the chart; also called biotinylated 15-mer, residues 10-24
T7 peptide: {Biotin-code X}-ITQTPYKVSISGTTV
Nature of the experiment: Luminex bead assay, 1 ug/ml antibody [Cont.]. How it is done:
as §1, §2

The target in experiment [8] is T8, B X TQTPYKVSISGTTVI (reading uncertain).
T8 construct: row 12 of the chart; also called biotinylated 15-mer, residues 11-25
T8 peptide: {Biotin-code X}-TQTPYKVSISGTTVI
The experiment in a line: Luminex bead assay, 1 ug/ml antibody [Cont.]. How it is done:
as §1, §2

Experiment [9] concerns the target T9, B X TPYKVSISGTTVILT (reading uncertain).
T9 construct: row 14 of the chart; also called biotinylated 15-mer, residues 13-27
T9 peptide: {Biotin-code X}-TPYKVSISGTTVILT
Nature of the experiment: Luminex bead assay, 1 ug/ml antibody [Cont.]. How it is done:
as §1, §2

Experiment [10] concerns the target T10, B X QAGNEEMGGITQTP (reading uncertain).
T10 construct: row 16 of the chart; also called alanine-scan peptide D2A
T10 peptide: {Biotin-code X}-QAGNEEMGGITQTP
The experiment in a line: Luminex bead assay, 1 ug/ml antibody [Cont.]. How it is done:
as §1, §2

The target in experiment [11] is T11, B X QDGNAEMGGITQTP (reading uncertain).
T11 construct: row 19 of the chart; 14 residues; also called alanine-scan peptide E5A
T11 peptide: {Biotin-code X}-QDGNAEMGGITQTP
The experiment in a line: Luminex bead assay, 1 ug/ml antibody [Cont.]. How it is done:
as §1, §2

For experiment [12], the target named is T12, B X QDGNEAMGGITQTP (reading uncertain).
T12 construct: row 20 of the chart; 14 residues; also called alanine-scan peptide E6A
T12 peptide: {Biotin-code X}-QDGNEAMGGITQTP
The experiment in a line: Luminex bead assay, 1 ug/ml antibody [Cont.]. How it is done: as §1, §2

Experiment [13] has as its target T13, B X QDGNEEMAGITQTP (reading uncertain).
T13 construct: row 22 of the chart; 14 residues; also called alanine-scan peptide G8A
T13 peptide: {Biotin-code X}-QDGNEEMAGITQTP
Nature of the experiment: Luminex bead assay, 1 ug/ml antibody [Cont.]. How it is done: as §1, §2

Experiment [14] deals with T14, B X QDGNEEMGAITQTP (reading uncertain).
T14 construct: row 23 of the chart; 14 residues; also called alanine-scan peptide G9A
T14 peptide: {Biotin-code X}-QDGNEEMGAITQTP
Nature of the experiment: Luminex bead assay, 1 ug/ml antibody [Cont.]. How it is done: as §1, §2

The target of experiment [15] is T15, vCD3e #p1 peptide.
T15 construct: also called control peptide #p1
Nature of the experiment: Luminex bead assay, 1 ug/ml antibody [Cont.]. How it is done:
as §1, §2

Experiment [16] concerns the target T16, biotinylated 15-mer peptide corresponding to the CD3ε N-terminus (human, UniProt P07766 22-36, limits assumed, not fully specified; reading uncertain).
T16 construct: domain: N-terminal 15-mer; Immobilised on streptavidin-conjugated Luminex beads; The text says 'peptides' in the plural, so more than one overlapping N-terminal 15-mer may be meant; also called N-terminal 15-mer; biotinylated N-terminal 15-mer
T16 peptide (looked up): {Biotin-linker}-QDGNEEMGGITQTPY
The experiment in a line: Luminex bead assay, 1 ug/ml antibody [Cont.]. How it is done:
as §1, §2

T1 sequence (Q95LI5 22-198): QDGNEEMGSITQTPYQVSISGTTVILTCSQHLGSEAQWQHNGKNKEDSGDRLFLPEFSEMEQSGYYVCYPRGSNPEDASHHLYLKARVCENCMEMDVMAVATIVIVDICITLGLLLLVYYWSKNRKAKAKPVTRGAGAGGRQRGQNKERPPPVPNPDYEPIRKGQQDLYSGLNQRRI

B1: 6d59 (antibody, V domains shown)
VH: QVHLVESGGGVVQPGRSLRLSCAASGFKFRSYGMHWVRQAPGKGLEWVAIIWYDGSKRYYADSVKGRFTISRDNSKNTLYLQMSSLRAEDTAVYYCARDLITGTTDYWGQGTLVTVSS
VL: DVVMTQSPLSLPVTLGQPASISCRSSRSLVYSDGNTHLIWFQQRPGQSPRRLIYRVSNRVSGVPDRFSGSGSGTDFTLKISRVEAEDVGVYYCLQGAHWPYTFGQGTKLEIKR
notes: also called 6d59.1; VCD3-6d59.1
The term EC50 (read off the curve) denotes the concentration at which the effect is half-maximal. A higher EC50 (read off the curve) goes with lower potency in that assay. Regarding B1, in experiment [1], the “EC50 (read off the curve)” value is roughly 0.07 nM. In addition, the Luminex signal in experiment [2] was 473; in experiment [3], 404; in experiment [4] it was 44.5; in experiment [5] it was 40.5; in experiment [6], 44.5; in experiment [7], 29.5. The Luminex signal in [8] came out at 47.5; in [9], 31; in experiment [10], 45; in [11] it was 483; in [12] it was 1480; in experiment [13] it was 2510. Moreover, the Luminex signal in experiment [14] stood at 2660; in [15], 20300; in [16], 3160.

The record behind these values is US20230057263A1 (CYTOMX THERAPEUTICS, published 2023).
